Experimental data from paper PMC8238500.

Columns and labels:
Assay in all cases: BRET (NanoLuc-miniG recruitment to plasma-membrane K-ras-YFP)
[1] = molecular target: NES-NanoLuc-MiniG subtype miniGq; settings: 500 ng receptor plasmid; parent: est. -0.030; read off a plot
[2] = molecular target: NES-NanoLuc-MiniG subtype miniGi; settings: 500 ng receptor plasmid; parent: est. -0.023; read off a plot
[3] = molecular target: NES-NanoLuc-MiniG subtype miniG12; settings: 500 ng receptor plasmid; parent: est. 0.020; read off a plot
[4] = molecular target: NES-NanoLuc-MiniG subtype miniGs; settings: 500 ng receptor plasmid; parent: est. 0.092; read off a plot

response [1]: -0.015 AU | response [2]: -0.013 AU | response [3]: 0.027 AU | response [4]: 0.011 AU
Sequence: G protein-coupled receptor 3 (GPR3), wild type (from UniProt P46089) DRY-mutant
